According to the Immune Epitope Database (IEDB):
pIC50, pKd: −log10 of the molar value.

How the values were obtained:
Conditions in all cases: source organism: Homo sapiens
HLA-A*11:01 = test: IEDB peptide-MHC binding, purified MHC/competitive/radioactivity; ≥ and ≤ were set here for values at or beyond the usual limits of such assays
HLA-A*03:01 = test: as above
HLA-A*33:01 = test: IEDB peptide-MHC binding, purified MHC/competitive/radioactivity; filed as Kd, often an IC50 or EC50 that approximates it; ≥ and ≤ were set here for values at or beyond the usual limits of such assays
HLA-A*31:01 = test: as above
HLA-A*68:01 = test: as above

Sequence	pIC50 (HLA-A*11:01)	pIC50 (HLA-A*03:01)	pKd (HLA-A*33:01)	pKd (HLA-A*31:01)	pKd (HLA-A*68:01)
IALNFPGSQK	6.50	7.44	≤ 5.00	≤ 5.00	5.33
QLVLHQILK	–	7.28	–	–	–
SLIYRRRLMK	–	7.41	–	–	–
LIYRRRLMK	–	8.26	–	–	–
ALNFPGSQK	8.34	8.07	≤ 5.00	≤ 5.00	≤ 5.00
